According to US20240018256A1 (JUNO THERAPEUTICS, published 2024):
Substitutions are numbered along the chain they refer to. Names and notes keep the numbering of the source. Values belong to the binder of their own block, whether it stands above or below them.

What was measured:
[1] = molecular target: T1, human CD19 (human, UniProt P15391 20-556); experiment: flow cytometry on CD19-expressing cells (n = 4)
T1 sequence: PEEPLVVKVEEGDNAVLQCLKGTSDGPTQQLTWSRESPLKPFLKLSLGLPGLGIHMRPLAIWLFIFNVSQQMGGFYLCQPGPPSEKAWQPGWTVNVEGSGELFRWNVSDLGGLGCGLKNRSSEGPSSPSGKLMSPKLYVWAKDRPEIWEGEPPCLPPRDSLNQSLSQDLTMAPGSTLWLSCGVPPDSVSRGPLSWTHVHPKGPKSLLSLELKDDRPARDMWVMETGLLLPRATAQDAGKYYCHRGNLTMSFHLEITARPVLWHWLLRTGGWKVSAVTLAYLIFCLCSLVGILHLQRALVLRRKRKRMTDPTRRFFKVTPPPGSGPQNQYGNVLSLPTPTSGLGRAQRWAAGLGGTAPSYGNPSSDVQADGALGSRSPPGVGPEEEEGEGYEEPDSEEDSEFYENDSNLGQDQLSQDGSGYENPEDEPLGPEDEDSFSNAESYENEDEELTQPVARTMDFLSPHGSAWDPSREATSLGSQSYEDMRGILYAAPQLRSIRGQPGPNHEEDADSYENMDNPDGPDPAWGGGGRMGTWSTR

[2] = molecular target: T1, human CD19; experiment: flow cytometry competition for binding with FMC63 (n = 6)
[3] = molecular target: T1, human CD19; experiment: flow cytometry, in vitro-translated FLAG-tagged scFv on CD19-expressing vs mock transfected K562 cells (FIG. 8D)
[4] = molecular target: T1, human CD19; experiment: flow cytometry, HIS-tagged scFv bacterial supernatant on CD19-transfected HEK293 cells (FIG. 8C)
Text: A third scFv library was generated by shuffling the VH sequences from the selection in (a) with the VL sequences resulting from the selection in (b). […] Binding by the selected scFv clones to CD19-expressing cells was confirmed by flow cytometry using bacterially-produced supernatant. The selected scFv pools were cloned into E. coli expression vectors and produced as HIS-tagged scFvs. Binding of individual clones to CD19-transfected HEK293 cells was detected with anti-HIS-Alexa647 conjugate by flow cytometry.

[5] = molecular target: T1, human CD19; experiment: flow cytometry on CD19-expressing cells (n = 5)
[6] = molecular target: T1, human CD19; experiment: flow cytometry on CD19-expressing cells, summary
[7] = molecular target: T1, human CD19; experiment: flow cytometry competition for binding with FMC63 (n = 2)
[8] = molecular target: T1, human CD19; experiment: flow cytometry, scFv titrated on CD19-expressing K562 cells (FIG. 3A)
[9] = molecular target: T1, human CD19; experiment: flow cytometry competition for binding with FMC63, summary (n = 2)
[10] = molecular target: T1, human CD19; experiment: flow cytometry, scFv titrated on CD19-expressing K562 cells (FIG. 4, one plate)
[11] = molecular target: T1, human CD19; experiment: flow cytometry on CD19-expressing cells (n = 1)
Text: (§1) Various clones were titrated and their binding affinity (EC50) to various CD19-expressing cells assessed by flow cytometry.

[12] = molecular target: T1, human CD19; experiment: flow cytometry competition for binding with FMC63
[13] = molecular target: T1, human CD19; experiment: flow cytometry, scFv titrated on CD19-expressing K562 cells (FIG. 3B)
[14] = molecular target: T1, human CD19; experiment: flow cytometry, scFv titrated on CD19-expressing K562 cells (FIG. 3C)
[15] = molecular target: T1, human CD19; experiment: flow cytometry on CD19-expressing cells, summary (n = 7)
[16] = molecular target: T1, human CD19; experiment: flow cytometry competition for binding with FMC63, summary (n = 3)
Protocol: (§2) Competition binding assays were performed to assess competition of various antibodies for binding to CD19-expressing cells.

[17] = molecular target: T1, human CD19; experiment: flow cytometry competition with labeled FMC63 IgG on CD19-expressing cells (FIG. 5B)
Protocol: as §2

[18] = molecular target: T1, human CD19; experiment: flow cytometry, scFv titrated on CD19-expressing K562 cells (FIG. 4, another plate)
[19] = molecular target: T1, human CD19; experiment: flow cytometry on CD19-expressing cells (n = 7)
Text: as §1

[20] = molecular target: T1, human CD19; experiment: flow cytometry on CD19-expressing cells, summary (n = 5)
[21] = molecular target: T1, human CD19; experiment: flow cytometry competition for binding with FMC63 (n = 3)
[22] = molecular target: T1, human CD19; experiment: flow cytometry competition for binding with FMC63, summary (n = 1)
[23] = molecular target: T1, human CD19; experiment: flow cytometry on Ramos cells; probe concentration said to be about its EC50
[24] = molecular target: T1, human CD19; experiment: flow cytometry on CD19-expressing cells, summary (n = 1)
[25] = molecular target: T1, human CD19; experiment: flow cytometry competition for binding with FMC63 (n = 1)

B1: Clone 488 scFv (scFv)
scFv: EVQLVQSGGGLVQPGRSLRLSCAASGFTFDDYAMHWVRQAPGKGLEWVSGISWNSGSIGYADSVKGRFTISRDNAKNSLYLQMNSLRAEDTAVYYCARDQGYHYYDSAEHAFDIWGQGTVVTVSSGGGGSGGGGSGGGGSEIVLTQSPATLSLSPGETATLSCRASQSINHYLAWYQQKPGQAPRLLIYDASNRATGIPARFSGSGSGTDFTLTISSLEPEDFATYYCQQSYSHPRMYTFGQGTKLDIK
notes: Human scFv
EC50 [1]: 2.9 nM
IC50 [2]: 6.1 nM

B4: Clone 17 scFv (scFv)
scFv: EVQLVESGGGLVQPGRSLRLSCAASGFTFDDYAMHWVRQAPGKGLEWVSGISWNSGRIGYADSVKGRFTISRDNAKNSLFLQMNSLRAEDTAVYYCARDQGYHYYDSAEHAFDIWGQGTMVTVSSGGGGSGGGGSGGGGSQSALTQPASVSGSPGQSITIFCTGTSSDVGGYNYVSWYQQLPGTAPKLLIYSNNQRPSGVPDRFSGSKSGTSASLAISGLRSEDEADYYCAAWDDSLSVVFGGGTKLTVL
notes: Human scFv, VH-(G4S)3-VL
EC50 [5]: 11.6 nM
EC50 [6]: 11.7 nM
IC50 [7]: 35.4 nM
EC50 [8]: 14.9 nM
IC50 [9]: 35.4 nM
EC50 [10]: 8.32 nM

B8: Clone 18 scFv (scFv)
scFv: EVQLVESGGGLVQPGRSLRLSCAASGFTFDDYAMHWVRQAPGKGLEWVSGISWNSGRIGYADSVKGRFTISRDNAKNSLFLQMNSLRAEDTAVYYCARDQGYHYYDSAEHAFDIWGQGTVVTVSSGGGGSGGGGSGGGGSQSALTQPRSVSGFPGQSVTISCTGTTSDDVSWYQQHPGKAPQLMLYDVSKRPSGVPHRFSGSRSGRAASLIISGLQTEDEADYFCCSYAGRYNSVLFGGGTKLTVL
notes: Human scFv, VH-(G4S)3-VL
EC50 [15]: 4.1 nM
EC50 [8]: 3.79 nM
EC50 [13]: 7.1 nM
IC50 [16]: 20.1 nM
EC50 [10]: 4.79 nM
IC50 [17]: 24 nM
EC50 [18]: 3.11 nM

B9: Clone 18B scFv (scFv)
scFv: B8 scFv with C226S
notes: Clone 18 with cysteine to serine at Kabat position 89 of VL; also called germline variant of clone 18
EC50 [19]: 4.9 nM
EC50 [20]: 5.4 nM
IC50 [21]: 32.9 nM
EC50 [13]: 9.3 nM
IC50 [22]: 28 nM

B11: Clone 5 scFv (scFv)
scFv: EVQLVESGGGLVQPGRSLRLSCAASGFTFDDYAMHWVRQAPGKGLEWVSGISWNSGRIGYADSVKGRFTISRDNAKNSLFLQMNSLRAEDTAVYYCARDQGYHYYDSAEHAFDIWGQGTMVTVSSGGGGSGGGGSGGGGSSYELTQDPAVSVALGQTVRITCQGDSLRSYYASWYQQKPGQAPVLVIYDKNNRPSGIPDRFSGSSSGNTASLTITGAQAEDEADYYCNSRDSSGNNWVFGGGTKLTVL
notes: Human scFv, VH-(G4S)3-VL
EC50 [11]: 15.8 nM
EC50 [24]: 15.8 nM
IC50 [25]: 50 nM
IC50 [22]: 50 nM
EC50 [10]: 15.8 nM

Further lines, results first:

binding result [3]: binds
B2: Clone 213 scFv (scFv)
scFv: B1 scFv with E1Q, L11V, D247E

binding result [4]: binds
B3: Clone 448 scFv (scFv)
scFv: QVQLVESGGGLVQPGRSLRLSCAASGFTFDDYAMHWVRQAPGKGLEWVSGISWNSGRIGYADSVKGRFTISRDNAKNSLFLQMNSLRAEDTAVYYCARDQGYHYYDSAEHAFDIWGQGTVVTVSSGGGGSGGGGSGGGGSQSALTQPASVSGSPGQSITISCTGTSSDLGGYNYVSWYQHRPGKAPKLIIYDVTVRPSGVSDRFSGSKSGNTASLTISGLQAEDEADYYCGSYTSSSTLLWVFGGGTKLDIK
notes: HIS- or FLAG-tagged

EC50 [11]: 71.8 nM
IC50 [12]: > 200 nM
B5: Clone 835 scFv (scFv)
scFv: EVQLVESGGGLVQPGRSLRLSCAASGFTFDDYAMHWVRLAPGKGLEWVSGISWNSGRIGYADSVKGRFTISRDNAKNSLFLQMNSLRAKDTAVYYCARDQGYHYYDSAEHAFDIWGQGTMVTVSSGGGGSGGGGSGGGGSQSVLTQPRSVSGSPGQSVTISCTGPISGVGDYTSVSWYQHYPGKTPKLIIYDVTQRPSGVPNRFSGSKSGNTASLTISGLQADDEADYYCCSYEAPTHTYVFGTGTKLTVL
notes: Human scFv

binding result [4]: binds
B6: Clone 440 scFv (scFv)
scFv: QVQLVESGGGLVQPGRSLRLSCAASGFTFDDYAMHWVRQAPGKGLEWVSGISWNSGRIGYADSVKGRFTISRDNAKNSLFLQMNSLRAEDTAVYYCARDQGYHYYDSAEHAFDIWGQGTVVTVSSGGGGSGGGGSGGGGSQSALTQPASVSGSPGHSITISCTGTRSDVGGFDYVSWYQHNPGKAPKLIIYDVTKRPSGVSNRFSGAKSGITASLTISGLQAEDEADYYCTSYRPGPTFVFGTGTKLDIK
notes: HIS- or FLAG-tagged

EC50 [5]: 7 nM
EC50 [6]: 8.04 nM
IC50 [7]: 18.2 nM
EC50 [13]: 7.9 nM
EC50 [14]: 8.8 nM
IC50 [9]: 18.2 nM
B7: Clone 76 scFv (scFv)
scFv: EVQLVESGGGLVQPGRSLRLSCAASGFTFDDYAMHWVRQAPGKGLEWVSGISWNSGRIGYADSVKGRFTISRDNAKNSLFLQMNSLRAEDTAVYYCARDQGYHYYDSAEHAFDIWGQGTVVTVSSGGGGSGGGGSGGGGSQSVLTQPPSVSAAPGQEVTISCSGSSSNIGNNYVSWYQQLPGTAPKLLIYDNDKRPSGIPDRFSGSKSGTSATLGITGLQTGDEADYYCGTWDGNLSAVFGGGTKVTVL
notes: Human scFv, VH-(G4S)3-VL

EC50 [23]: ~0.5 nM
B10: SJ25C1 IgG1 (antibody, V domains shown)
VH: EVKLQQSGAELVRPGSSVKISCKASGYAFSSYWMNWVKQRPGQGLEWIGQIYPGDGDTNYNGKFKGQATLTADKSSSTAYMQLSGLTSEDSAVYFCARKTISSVVDFYFDYWGQGTTVTVSS
VL: DIELTQSPKFMSTSVGDRVSVTCKASQNVGTNVAWYQQKPGQSPKPLIYSATYRNSGVPDRFTGSGSGTDFTLTITNVQSKDLADYFCQQYNRYPYTSGGGTKLEI
notes: Murine IgG1, FITC-labeled in the assay; also called FITC-labeled SJ25C1
